Assay results published in article PMC10671326, “In Vivo and In Vitro Characterization of the RNA Binding Capacity of SETD1A (KMT2F)”.
“And” between values parts separate entries of the source, which are not always exact repeats. Identical values can stand only once.

B1: Random50 (R50) (ssRNA)
RNA: AAGAAUGGCCUCGCGGAGGCAUGCGUCAUGCUAGCGUGCGGGGUACUCUU

What was measured:
[1] = biological target: T1, SETD1A RRM domain (human, UniProt O15047 89-197); assay: MST; conditions: EMSA: 2 nM biotinylated RNA, LightShift RNA EMSA kit protocol, 30 min room temperature, 6% native PAGE in 0.5x TBE; MST: 40% MST power, LED 20-40%, buffer and …
[2] = biological target: T1, SETD1A RRM domain; assay: MST; thermophoresis; EMSA: 2 nM biotinylated RNA, LightShift RNA EMSA kit protocol, 30 min room temperature, 6% native PAGE in 0.5x TBE; MST: 40% MST power, LED 20-40%, buffer and temperature not in material; conditions: protein: recombinant; tags: His (pET28-MHL vector, HisTrap purified); label: uniformly labeled (MST)
[3] = biological target: T1, SETD1A RRM domain; assay: MST; back diffusion; EMSA: 2 nM biotinylated RNA, LightShift RNA EMSA kit protocol, 30 min room temperature, 6% native PAGE in 0.5x TBE; MST: 40% MST power, LED 20-40%, buffer and temperature not in material; conditions: protein: recombinant; tags: His (pET28-MHL vector, HisTrap purified); label: uniformly labeled (MST)
[4] = biological target: T1, SETD1A RRM domain; assay: MST; T-jump; EMSA: 2 nM biotinylated RNA, LightShift RNA EMSA kit protocol, 30 min room temperature, 6% native PAGE in 0.5x TBE; MST: 40% MST power, LED 20-40%, buffer and temperature not in material; conditions: protein: recombinant; tags: His (pET28-MHL vector, HisTrap purified); label: uniformly labeled (MST)

T1 sequence (O15047 89-197): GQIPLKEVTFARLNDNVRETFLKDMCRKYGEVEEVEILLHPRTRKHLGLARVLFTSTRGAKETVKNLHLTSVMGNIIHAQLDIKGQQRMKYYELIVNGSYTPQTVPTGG

| Molecule | Kd [1] | also measured |
| --- | --- | --- |
| TP53TG1 | 0.67 µM and 0.69 µM and 1.05 µM | – |
| SETD1A mRNA (N-terminal half coding region) | 0.21 µM and 0.06 µM | – |
| NEAT1_2 (12_13k segment) | 1.52 µM and 1.89 µM and 1.11 µM | – |
| SNHG8 | 0.87 µM and 2.19 µM and 1.19 µM | – |
| SETD1B mRNA (RRM coding region) | 0.31 µM | – |
| SCARNA7 | 1.28 µM and 0.31 µM and 1.17 µM | – |
| B1 | – | Kd [2]: 28.1 µM; Kd [3]: 11.8 µM; Kd [4]: 15.5 µM |
